Test results taken from patent US20200270365A1 (JIANGSU HENGRUI MEDICINE, published 2020).

B1: h011-3050 (antibody, V domains shown)
VH: QVQLVQSGAEVKKPGASVKVSCKASGYTFTGYTIHWVRQAPGQGLEWMGEILPSSTYTKFNQKFKDRVTMTRDTSISTAYMELSRLRSDDTAVYYCARERIYSNYWFFDVWGQGTTVTVSS
VL: DIVMTQSPSSLSASVGDRVTITCKASQNVYTAVAWYQQKPGKSPKLLIYSASNRYTGVPSRFSGSGSGTDFTLTISSLQPEDFATYFCQQYSSYPYTFGGGTKVEIK
B2: h011-3120 (antibody, V domains shown)
VH: QVQLVQSGAEVKKPGASVKVSCKASGYTFTGYTIHWVRQAPGQGLEWMGYINPSSTYTKFNQKFKDRVTMTRDTSISTAYMELSRLRSDDTAVYYCARERIYSNYWFFDVWGQGTTVTVSS
VL: DIVMTQSPSSLSASVGDRVTITCKASQNVYTAVAWYQQKPGKSPKLLIYSASNRYTGVPSRFSGSGSGTDFTLTISSLQPEDFATYFCQQFSWFPYTFGGGTKVEIK
B3: h011-3093 (antibody, V domains shown)
VH: QVQLVQSGAEVKKPGASVKVSCKASGYTFTGYTIHWVRQAPGQGLEWMGYINPSSTYTKFNQKFKDRVTMTRDTSISTAYMELSRLRSDDTAVYYCARERIYSNYWFFDVWGQGTTVTVSS
VL: DIVMTQSPSSLSASVGDRVTITCKASQNVYTAVAWYQQKPGKSPKLLIYEMVNRYTGVPSRFSGSGSGTDFTLTISSLQPEDFATYFCQQYSSYPYTFGGGTKVEIK
B4: h011-3111 (antibody, V domains shown)
VH: QVQLVQSGAEVKKPGASVKVSCKASGYTFTGYTIHWVRQAPGQGLEWMGYINPSSTYTKFNQKFKDRVTMTRDTSISTAYMELSRLRSDDTAVYYCARERIYSNYWFFDVWGQGTTVTVSS
VL: DIVMTQSPSSLSASVGDRVTITCKASQNVYWEVDWYQQKPGKSPKLLIYSASNRYTGVPSRFSGSGSGTDFTLTISSLQPEDFATYFCQQYSSYPYTFGGGTKVEIK
B5: h011-3121 (antibody, V domains shown)
VH: QVQLVQSGAEVKKPGASVKVSCKASGYTFTGYTIHWVRQAPGQGLEWMGYINPSSTYTKFNQKFKDRVTMTRDTSISTAYMELSRLRSDDTAVYYCARERIYSNYWFFDVWGQGTTVTVSS
VL: DIVMTQSPSSLSASVGDRVTITCKASQNVYTAVAWYQQKPGKSPKLLIYSASNRYTGVPSRFSGSGSGTDFTLTISSLQPEDFATYFCQQLSSQPETFGGGTKVEIK
B6: h011-3065 (antibody, V domains shown)
VH: QVQLVQSGAEVKKPGASVKVSCKASGYTFTGYDIHWVRQAPGQGLEWMGYINPSSTYTKFNQKFKDRVTMTRDTSISTAYMELSRLRSDDTAVYYCARERIYSNYWFFDVWGQGTTVTVSS
VL: DIVMTQSPSSLSASVGDRVTITCKASQNVYTAVAWYQQKPGKSPKLLIYSASNRYTGVPSRFSGSGSGTDFTLTISSLQPEDFATYFCQQYSSYPYTFGGGTKVEIK
B7: h011-3070 (antibody, V domains shown)
VH: QVQLVQSGAEVKKPGASVKVSCKASGYTFTGYTIHWVRQAPGQGLEWMGYINPSSTYTKFNQKFKDRVTMTRDTSISTAYMELSRLRSDDTAVYYCARENIYFNYWFFDRWGQGTTVTVSS
VL: DIVMTQSPSSLSASVGDRVTITCKASQNVYTAVAWYQQKPGKSPKLLIYSASNRYTGVPSRFSGSGSGTDFTLTISSLQPEDFATYFCQQYSSYPYTFGGGTKVEIK
B8: h011-3118 (antibody, V domains shown)
VH: QVQLVQSGAEVKKPGASVKVSCKASGYTFTGYTIHWVRQAPGQGLEWMGYINPSSTYTKFNQKFKDRVTMTRDTSISTAYMELSRLRSDDTAVYYCARERIYSNYWFFDVWGQGTTVTVSS
VL: DIVMTQSPSSLSASVGDRVTITCKASQNVYWEVVWYQQKPGKSPKLLIYSASNRYTGVPSRFSGSGSGTDFTLTISSLQPEDFATYFCQQYSSYPYTFGGGTKVEIK
B9: h011-3073 (antibody, V domains shown)
VH: QVQLVQSGAEVKKPGASVKVSCKASGYTFTGYTIHWVRQAPGQGLEWMGYINPSSTYTKFNQKFKDRVTMTRDTSISTAYMELSRLRSDDTAVYYCARENIFSNYWFFDRWGQGTTVTVSS
VL: DIVMTQSPSSLSASVGDRVTITCKASQNVYTAVAWYQQKPGKSPKLLIYSASNRYTGVPSRFSGSGSGTDFTLTISSLQPEDFATYFCQQYSSYPYTFGGGTKVEIK
B10: h011-3095 (antibody, V domains shown)
VH: QVQLVQSGAEVKKPGASVKVSCKASGYTFTGYTIHWVRQAPGQGLEWMGYINPSSTYTKFNQKFKDRVTMTRDTSISTAYMELSRLRSDDTAVYYCARERIYSNYWFFDVWGQGTTVTVSS
VL: DIVMTQSPSSLSASVGDRVTITCKASQNVYTAVAWYQQKPGKSPKLLIYEASNRYTGVPSRFSGSGSGTDFTLTISSLQPEDFATYFCQQYSSYPYTFGGGTKVEIK
B11: h011-3058 (antibody, V domains shown)
VH: QVQLVQSGAEVKKPGASVKVSCKASGYTFTGYTIHWVRQAPGQGLEWMGEINPSGTYTKFNQKFKDRVTMTRDTSISTAYMELSRLRSDDTAVYYCARERIYSNYWFFDVWGQGTTVTVSS
VL: DIVMTQSPSSLSASVGDRVTITCKASQNVYTAVAWYQQKPGKSPKLLIYSASNRYTGVPSRFSGSGSGTDFTLTISSLQPEDFATYFCQQYSSYPYTFGGGTKVEIK

Assays:
[1] = molecular target: T1, PCSK9 D374Y mutant protein inserted with biotin receiving peptide BP15 and His-tag: PCSK9-D374Y-BP15-His6 (human, UniProt Q8NBP7 153-692; A8T644 31-152, biotin on the BP15 biotin receiving peptide); assay: ELISA, biotin PCSK9-Y on streptavidin plate
T1 construct: also called PCSK9-Y; mutant PCSK9
Procedure: The binding ability of anti-PCSK9 antibodies of the present invention to PCSK9-Y protein (mutant PCSK9, SEQ ID NO: 6) was detected by measuring the amounts of antibodies binding to PCSK9-Y immobilized on the ELISA plate.
Streptavidin (sigma, CAT #S4762) was diluted to 2 μg/ml with PBS and was added into a 96-well ELISA plate, at 4° C. for overnight. The plate was washed and then was blocked with Tris buffer (including 0.9 mM CaCl₂, 0.05% Tween 20 and 5% skim milk) at 37° C. for 2 hours. The plate was washed and 100 μl/well of biotin-labeled PCSK9-Y (produced in-house, diluted with Tris buffer containing 0.9 mM CaCl₂, 0.05% Tween 20 and 1% skim milk) was added and incubated at 37° C. for 1 hour. After the wash step, various concentrations of diluted PCSK9 antibody samples were added to the plate and incubated at 37° C. for 1 hour. […] Then the plate was washed and tetramethyl brenzidine solution was added for development. Finally, the stop buffer was added and the OD450 value was measured on the Microplate reader, and then EC50 was calculated.

[2] = molecular target: T2, PCSK9 protein inserted with biotin receiving peptide BP15 and His-tag: PCSK9-BP15-His6 (human, UniProt Q8NBP7 153-692; A8T644 31-152, biotin on the BP15 biotin receiving peptide (labeled during the expression)); assay: ELISA, biotin PCSK9 on streptavidin plate
T2 construct: also called WT PCSK9; PCSK9 WT
Procedure: The binding ability of anti-PCSK9 antibodies of the present invention to PCSK9 protein (WT PCSK9, SEQ ID NO: 5) was detected by measuring the amounts of antibodies binding to PCSK9 immobilized on the ELISA plate.
Streptavidin (sigma, CAT #S4762) was diluted to 2 μg/ml with PBS and was added into a 96-well ELISA plate, at 4° C. for overnight. The plate was washed and then was blocked with Tris buffer (including 0.9 mM CaCl₂, 0.05% Tween 20 and 5% skim milk) at 37° C. for 2 hours. Then the plate was washed again and 100 μl/well of biotin-labeled PCSK9 (produced in-house, diluted with Tris buffer containing 0.9 mM CaCl₂, 0.05% Tween 20 and 1% skim milk) was added and incubated at 37° C. for 1 hour. After the wash step various concentrations of diluted PCSK9 antibody samples was added to the plate and incubated at 37° C. for 1 hour. […] Then the plate was washed and tetramethyl brenzidine solution was added for development. Finally, the stop buffer was added and the OD450 value was measured on the Microplate reader, and then EC50 was calculated.

[3] = molecular target: T2, PCSK9 protein inserted with biotin …; assay: competition ELISA, LDLR-FC coated, biotin PCSK9 + antibody
Procedure: The blocking ability of PCSK9 antibodies according to the present invention for the binding of LDLR-FC (produced in-house, with sequence of SEQ ID NO: 8) and PCSK9 (SEQ ID NO: 5) was tested by measuring the amount of PCSK9 binding to LDLR in the presence of the antibodies.
(§1) LDLR-FC was diluted to 5 μg/ml with phosphate buffer and was added into the 96-well ELISA plate, kept at 4° C. overnight. The plate was washed and then blocked with Tris buffer (including 0.9 mM CaCl₂, 0.05% Tween 20 and 5% skim milk) at 37° C. for 2 hours. Then the plate was washed and 100 μl/well of mixture of biotin-labeled PCSK9 (diluted to 2 μg/ml with Tris buffer containing 0.9 mM CaCl₂, 0.05% Tween 20 and 1% skim milk) and antibody samples (diluted with Tris buffer containing 0.9 mM CaCl₂, 0.05% Tween 20 and 1% skim milk) was added and incubated at 37° C. for 1 hour. Then the plate was washed again and horseradish peroxidase-streptavidin (sigma, CAT #S2438) was added and incubated at 37° C. for 1 hour. Then the plate was washed and tetramethyl brenzidine solution was added for development. Finally, the stop buffer was added and OD450 value was measured on the Microplate reader, then IC50 value was calculated.

[4] = molecular target: T1, PCSK9 D374Y mutant protein inserted …; assay: competition ELISA, LDLR-FC coated, biotin PCSK9-Y + antibody
Procedure: The blocking ability of PCSK9 antibodies according to the present invention for the binding of LDLR-FC and PCSK9-Y (mutant PCSK9, SEQ ID NO: 6) was tested by measuring the amount of PCSK9-Y binding to LDLR in the presence of the antibodies.
as §1, with “LDLR-FC (produced in-house, with sequence of SEQ ID NO: 8)” for “LDLR-FC”, “to 2” for “to 5”, “plate,” for “plate, kept”, “biotin-labeled mutant” for “biotin-labeled”, “to 1” for “to 2”

Binder	EC50 [1]	EC50 [2]	IC50 [3]	IC50 [4]
B1	0.00525 µg/mL	0.00312 µg/mL	0.598 µg/mL	0.123 µg/mL
B2	0.00711 µg/mL	0.00538 µg/mL	0.911 µg/mL	0.213 µg/mL
B3	0.00989 µg/mL	0.00381 µg/mL	0.706 µg/mL	0.287 µg/mL
B4	0.00681 µg/mL	0.00498 µg/mL	1.22 µg/mL	0.226 µg/mL
B5	0.00695 µg/mL	0.00378 µg/mL	0.662 µg/mL	0.174 µg/mL
B6	0.0109 µg/mL	0.00539 µg/mL	0.73 µg/mL	0.312 µg/mL
B7	0.0144 µg/mL	0.00511 µg/mL	0.629 µg/mL	0.228 µg/mL
B8	0.00851 µg/mL	0.00351 µg/mL	1.04 µg/mL	0.23 µg/mL
B9	0.0123 µg/mL	0.00389 µg/mL	0.604 µg/mL	0.129 µg/mL
B10	0.0132 µg/mL	0.00441 µg/mL	0.582 µg/mL	0.391 µg/mL
B11	0.00606 µg/mL	0.00369 µg/mL	0.542 µg/mL	0.162 µg/mL
